Results taken from US20250297282A1.

Target: GFP-encoding lentiviral particles

Substance: StrepTactin Superflow column (0.2 mL resin bed, 3 mg binding capacity per mL; IBA Lifesciences GmbH)
- GFP+ cells (gate over CD8- and CD8+ cells) among T cells five days after transduction with the biotin elution fraction of the column without VBP (-VB), by flow cytometry: 0.069%
